Each block holds one substance with its values, some of them ahead of it.
Experiments:
[1] = target: GLP-1 receptor
[2] = target: GLP-1 receptor; remark: listed apart in the source
[3] = target: Liraglutide
[4] = target: GLP-1 (7-36) amide
[5] = target: GLP-2
[6] = target: GLP-1 receptor; remark: listed apart in the source

Chain of para-trifluoromethyldiazirine benzyl derivative of GLP-1 (peptide) (peptide): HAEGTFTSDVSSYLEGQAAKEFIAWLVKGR

Substance: Exenatide (peptide)
EC50 (pM), agonist potency, CRE-luciferase reporter [1]: 1.1 pM

agonist potency, CRE-luciferase reporter [2]: 50 fold
Substance: N-acetyl-GLP-1 (peptide)

degradation by DPP4, read as potency loss in the GLP-1R agonist assay [3]: > 98% | degradation by DPP4, read as potency loss in the GLP-1R agonist assay [4]: > 99.8% | degradation by DPP4, read as potency loss on human GLP-2R [5]: > 97%
Substance: dipeptidyl protease 4 (enzyme)

agonist potency and efficacy [6]: 123 fold
Substance: para-trifluoromethyldiazirine benzyl derivative of GLP-1 (peptide)
